{"source": "paper PMC4787834", "binders": {"B1": {"name": "SSU9:G (dsDNA)", "DNA 1": "CTCAAGTGUAGGCATGCAAGAGCT", "DNA 2": "CTTGCATGCCTGCACTTGAGTGCA", "modifications": "deoxyuridine at position 9 opposite G"}}, "key": {"MsmUdgX [1]": {"target": "T1, MsmUdgX (Mycobacterium smegmatis mc2 155, UniProt A0QP43 1-209)", "T1 sequence": "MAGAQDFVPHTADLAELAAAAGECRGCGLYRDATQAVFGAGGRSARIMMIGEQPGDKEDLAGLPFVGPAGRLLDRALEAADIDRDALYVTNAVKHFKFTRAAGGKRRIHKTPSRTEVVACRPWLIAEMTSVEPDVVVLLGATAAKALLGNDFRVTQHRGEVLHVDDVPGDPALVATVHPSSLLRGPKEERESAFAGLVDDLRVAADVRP", "experiment": "SDS-PAGE complex shift"}, "MsmUdgX [2]": {"target": "T1, MsmUdgX", "experiment": "8 M urea-PAGE complex shift"}, "MsmUdgX F4": {"target": "T2, MsmUdgX F4 (Mycobacterium smegmatis mc2 155, UniProt A0QP43 1-209, Q53A)", "T2 sequence": "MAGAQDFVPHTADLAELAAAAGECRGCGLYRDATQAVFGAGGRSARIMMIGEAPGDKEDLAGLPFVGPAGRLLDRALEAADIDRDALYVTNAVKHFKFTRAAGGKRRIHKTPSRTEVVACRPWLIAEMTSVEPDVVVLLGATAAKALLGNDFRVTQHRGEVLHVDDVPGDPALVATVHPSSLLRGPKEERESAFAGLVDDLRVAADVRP", "experiment": "8 M urea-PAGE complex shift"}}}
{"binder": "TUTT (ssDNA, deoxyuridine at position 2; 5' phosphate)", "note": "[pTUTT]", "values": [{"measurement": "binding result", "setting": "MsmUdgX [1]", "result": "binds"}]}
{"binder": "B1", "values": [{"measurement": "binding result", "setting": "MsmUdgX [2]", "result": "binds"}]}
{"binder": "CTCAAGTGUAGGCATGCAAGAGCT (ssDNA, deoxyuridine at position 9)", "note": "[SSU9]", "values": [{"measurement": "binding result", "setting": "MsmUdgX [2]", "result": "binds"}, {"measurement": "binding result", "setting": "MsmUdgX F4", "result": "binds"}]}
